US20220380473A1, “ANTI-GAL3 ANTIBODIES AND USES THEREOF” (TrueBinding, Inc., priority 2019, published 2022)
“Also recorded” adds a separate entry of the source.

What was measured:
[1] = test system: MCD mouse model of liver fibrosis; test: Methionine-choline deficient (MCD) mouse model of liver fibrosis; type: in vivo
Text: To further investigate the ability of GAL3-TIM3 blocking antibodies to influence liver fibrosis, the methionine-choline deficient (MCD) mouse model of liver fibrosis was employed. Briefly, Six-week-old male C57Bl/6 mice (Jackson Laboratory) were fed either a normal diet (Envigo, #2020X; n=5 mice); or MCD diet (Fisher Scientific, #MP296043910, n=25) for 8 weeks and continuously through the remainder of the study. Mice were divided into three groups (7 mice each) and randomized based on ALT score. Group 1 and 2 were treated mouse anti-mIgG2aLala isotype control (mISO, 10 mg/kg) or mouse anti-Gal3 antibody (mIMT001, 10 mg/kg) twice a week of IP injection for 4 weeks, at which time animals were sacrificed and liver specimens were collected, fixed in 4% paraformaldehyde (Electron Microscopy Sciences, Cat #15710S) for 24 hours, transferred to 70% EtOH for 72 hours, and samples were subsequently embedded in paraffin. […] Brightfield images were acquired under a Revolve microscope (Discover Echo, Inc.).
To assess fibrosis in these specimens, tissue sections were evaluated for the deposition of fibrotic collagen deposits by picosirius red staining. Briefly, after deparaffinization, liver specimens from isotype control- or IMT001-treated MCD mice were rehydrated in serial ethanol baths, sections were stained in 0.01% Fast green FCF Solution (Cat #1.04022.0025 MilliporeSigma) in saturated picric aqueous solution for 15 minutes at room temperature, followed by 1 h incubation at room temperature in 0.04% Fast green FCF/0.1% Sirius red in saturated picric aqueous solution, prior to their dehydration, clearing and mounting. Images were quantitated using ImageJ software (Rasband, W. S., ImageJ, U. S. National Institutes of Health, Bethesda, Md., USA, world wide web.imagej.nih.gov/ij/)

[2] = test system: α-smooth muscle actin (SMA) and fibronectin; test: UUO mouse kidney fibrosis, western blot of fibrosis markers (Example 19); type: in vivo; conditions: 10 mg/kg i.p., 14 day treatment, vs IgG2b control
Description: Unilateral […] obstruction (UUO) mouse model was created with 8-week old male C57BL/6 mice. The animals were randomly assigned into three groups (n=5); sham, mouse IgG2b control, and IMT001. […] On day 0, surgery was performed to ligate the left ureter in each animal. Following the surgery, the animals were administrated intraperitoneally either 10 mg/kg of mIgG2b (BioXCell) or IMT001 on day 1, 5 and 10. The animals in the sham group were left untreated. On day 4, 8 and 15 the animals were humanely sacrificed and left kidney tissues were surgically removed and snap frozen for western blot analysis.
30 mg snap frozen kidney tissue from 14 day treatment UUO group was homogenized in 500 μl of RIPA buffer (Thermo Scientific). The homogenate was left on ice for 10 minutes and then centrifuged at 12000 rpm for 10 min at 4° C. in 1.5 mL Eppendorf tubes. The supernatant containing protein was collected and was quantified by A280 absorbance with a Nanodrop (ThermoFisher). Protein samples were boiled in 4× sample Buffer containing β-mercaptoethanol (Bio-Rad) for 10 min. […] The membranes were washed three times with PBST and protein bands were detected by enhanced chemiluminescence using standard ECL detection methods as recommended by the manufacturer (Bio-Rad) and developed. […]

MBT-2 cells = test: MBT-2 bladder tumor model, combination with anti-PD1 or anti-PD-L1; type: in vivo, mouse; conditions: 20 mg/Kg i.p.
Description: To evaluate the potential for GAL3-TIM3 blocking antibodies to influence tumor biology, studies were conducted in mice bearing MBT-2 bladder tumor xenografts in combination with other antibodies targeting the immunomodulatory checkpoint molecules PD-1 and PD-L1. Briefly, 7-week old female C3H/HeJ mice (Jackson Laboratory) were anesthetized by inhalation anesthetic (3 to 5% Isoflurane in medical grade air) and 1×10^6 MBT-2 cells (Sekisui XenoTech, LLC) in 0.1 mL PBS were subcutaneously injected into the right flank by using a syringe with a 25-ga needle. 7 days after tumor implantation, mice were randomly assigned into six groups (n=9-10). Mice were administrated intraperitoneally with isotype control mIgG2b (BioXCell), anti-Gal3 (mIMT001), anti-PD1 (RMP1-14, BioXCell) plus mIgG2b, anti-PD1 (RMP1-14) plus mIMT001, anti-PDL1 (10F.9G2, BioXCell) plus mIgG2b, and anti-PDL1 (10F.9G2) plus mIMT001. Isotype control and anti-Gal3 antibodies were dosed at 20 mg/Kg on day 7, 9, 12, 14 and 16; anti-PD1 (RMP1-14 10 mg/Kg) or anti-PDL1 (10F.9G2, 5 mg/Kg) were dosed on day 8, 12, and 15. Tumor volumes and body weights were monitored twice per week. The animals were humanely sacrificed when tumor volumes or animal health reached IACUC-defined endpoints. Results were expressed as mean±SEM, with statistical analysis performed by two-way ANOVA.

Renca cells = test: Primary mouse Renca renal tumor model; type: in vivo; conditions: vs isotype control
Description: On the day of tumor implantation, mice were anesthetized by inhalation anesthetic (3 to 5% Isoflurane in medical grade air), Renca cells were washed and resuspended in PBS before subcutaneously injecting 2×10^5 cells in 0.1 mL, PBS using a syringe with a 25-ga needle. […] The animals were humanely sacrificed when tumor volume in the control group reached between 2000-2500 mm^3. Results were expressed as mean±SEM. The statistical analysis was performed in comparison with IgG2b control group using unpaired t test.

[3] = 10 mg/kg twice a week IP for 4 weeks

B1: IMT001: anti-Gal3 monoclonal antibody (Immutics); printed as mIMT001 (IMT001), murine (antibody, V domains shown)
VH: QIQLVQSGPELKKPGETVKISCKASGYTFTNYGMNWVKQAPGKGLKWMGWINTNTGEPTYVEEFKGRFAFSLETSASTAYLQINNLKNEDTATYFCAPYDNFFAYWGQGTLVTVSA
VL: DIVITQDELSNPVTSGESVSISCRSSKSLLYKDGKTYLNWFLQRPGQSPQLLIYLMSTHASGVSDRFSGSGSGTDFTLEISRVKAEDVGVYYCQQLVDYPLTFGAGTKLELK
apoptotic ballooning cells, image-based quantification [1, 3]: 0.98 | infiltrating lobular immune cells, image-based quantification [1, 3]: 0.73 | steatosis, image-based quantification [1, 3]: 1 | NAS score ([1]; integrated score): 2.72 | picosirius red staining, % of the tissue area ([1]; liver sections): 1.25% | reduction of ballooning ([1]; vs control-treated): 27% | reduction of lobular immune cells ([1]; vs control-treated): 59% | reduction of steatosis ([1]; vs control-treated): 15% | reduction of NAS score ([1]; vs isotype control): 43% | reduction of picosirius red staining ([1]; vs isotype control): 71% | expression of fibrotic markers a-SMA and fibronectin in kidney [2]: reduced expression of both fibrotic markers | effect on tumor volume, single agent (MBT-2 cells): did not exhibit any significant decrement in tumor volume; also recorded: did not reduce tumor volumes | reduction of tumor growth (Renca cells; 10 mg/Kg i.p.): about 35% | effect on tumor size (Renca cells): much reduced tumor size
